Values quoted from earlier work in PMC6746776.

Molecular target: p63 TAD TAD (Homo sapiens) (UniProt Q9H3D4)
Sequence (Q9H3D4 1-107): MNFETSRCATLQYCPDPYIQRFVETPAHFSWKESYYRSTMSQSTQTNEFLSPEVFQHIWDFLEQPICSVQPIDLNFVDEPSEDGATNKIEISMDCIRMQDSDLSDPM

Chain of p300 Taz2 (Q09472 1723-1812): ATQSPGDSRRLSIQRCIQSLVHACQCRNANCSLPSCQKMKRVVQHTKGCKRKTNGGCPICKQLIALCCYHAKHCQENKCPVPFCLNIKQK

Kd: 196 nM
Substance: p300 Taz2 (from UniProt Q09472)
